From patent US7618787B2, “Method of screening compound capable of accelerating or inhibiting apoptosis, apoptosis accelarator and apoptosis inhibitor” (Hisamitsu Pharmaceutical Co., Inc., priority 2004, dated 2009) come the findings set out here.

The subject of one assay is H1299 cells. As to the kind of experiment: Apoptosis assay (trypan blue / Red-Gal double staining), p73α-dependent. The format is cell-based, human. The conditions noted are these: H1299, coexpression with HA-p73α, 48 hours (FIG. 25-27). The procedure:
To detect apoptosis via p73α and IKK overexpression, H1299 cells were seeded at a density of 1.5×10^4 cells/well onto a 6-well tissue culture dish. Next day, the cells were transiently transfected with 50 ng of β-galactosidase expression plasmid and 50 ng of HA-p73α expression plasmid in the presence or absence of varying amounts of IKK-α or IKK-β expression vectors (100, 200, or 400 ng). After 48 hours of the transfection, the cells were washed with ice-cold PBS and stained at room temperature for 10 minutes with 0.4% trypan blue (PBS solution). Then, the cells were washed twice with PBS, then fixed for 10 minutes in PBS containing 2.5% glutaraldehyde, 1 mM magnesium chloride, and 2 mM EGTA, and stained for 2 hours with Red-Gal (Research Organics) according to the method described in Bayon, Y. et al., Mol. Cell. Biol. 23: 1061-1074 (2003). Red-Gal was used as a marker for visualizing the transfected cells to evaluate the degree of apoptosis occurring in the transfectants. […] Results were indicated by an average of three independent transfections (each performed three times or more).
Potential effect(s) of IKK-α on p73-dependent biological functions such as the regulation of apoptosis was examined. […] After 48 hours of the transfection, the cells were subjected to double staining with trypan blue (nonviable cells) and Red-Gal (transfected cells), and the number of purple cells was scored.

Assay [1] has as its target T1, p73 (Homo sapiens, UniProt O15350).
T1 construct: expressed in transfected cells; host or cells: COS7
T1 sequence (O15350 1-636): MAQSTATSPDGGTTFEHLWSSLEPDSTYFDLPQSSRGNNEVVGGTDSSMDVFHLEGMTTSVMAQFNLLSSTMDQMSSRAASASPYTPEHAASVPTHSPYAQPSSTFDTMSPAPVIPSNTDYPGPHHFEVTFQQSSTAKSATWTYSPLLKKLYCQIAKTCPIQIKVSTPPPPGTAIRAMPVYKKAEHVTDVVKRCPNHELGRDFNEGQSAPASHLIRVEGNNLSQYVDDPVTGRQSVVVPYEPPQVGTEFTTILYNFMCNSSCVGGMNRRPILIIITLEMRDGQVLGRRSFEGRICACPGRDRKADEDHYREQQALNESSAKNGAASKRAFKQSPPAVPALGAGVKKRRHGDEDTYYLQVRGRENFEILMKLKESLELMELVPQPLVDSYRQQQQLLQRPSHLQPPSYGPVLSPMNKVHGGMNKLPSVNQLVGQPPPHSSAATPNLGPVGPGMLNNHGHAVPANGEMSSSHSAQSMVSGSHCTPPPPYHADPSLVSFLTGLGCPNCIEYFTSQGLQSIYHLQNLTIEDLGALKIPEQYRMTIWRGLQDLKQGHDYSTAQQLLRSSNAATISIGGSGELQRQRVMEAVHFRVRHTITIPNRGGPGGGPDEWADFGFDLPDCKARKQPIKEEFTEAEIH
As to the kind of experiment: p73 protein level (stabilization) by immunoblot in cotransfected COS7 cells. The format is cell-based. The conditions noted are these: COS7 cotransfection (FIG. 14, 15, 29). The procedure:
(§1) Cells were transiently transfected with a total of 2 μg of expression plasmids. After 48 hours of the transfection, the cells were washed with ice-cold PBS and suspended in lysis buffer (pH 8.0; which contained 25 mM Tris-Cl, 137 mM sodium chloride, 1% Triton X-100, 1 mM phenylmethylsulfonyl fluoride (PMSF), and protease inhibitor mix (Roche Molecular Biochemicals)), followed by brief sonication. After centrifugation at 15000 rpm for 10 minutes, the supernatant was collected and assayed for protein concentrations by the Bradford assay (Bio-Rad). Equal amounts of lysates (protein amount: 50 μg) from the whole cells were denatured by boiling in Laemmli SDS-sample buffer, then separated on 10% SDS-polyacrylamide gel (SDS-PAGE), and transferred at room temperature for 1 hour to polyvinylidene difluoride (PVDF) membranes (Immobilon-P; Millipore) in Tris-glycine buffer containing 10% methanol. The membranes were blocked at room temperature for 1 hour with Tris-buffered saline (TBS-T) containing 5% skim milk and 0.1% Tween 20.
(§2) As previously reported, some protein kinases (e.g., c-Abl and PKCδ) that interact with p73 can stabilize p73. To confirm whether IKK-α influenced the stabilization of p73, COS7 cells were transfected with a constant amount of HA-p73α expression plasmid together with or without varying amounts of IKK-α expression plasmids and examined for HA-p73α protein levels. […] Next, whether IKK-β influenced the stabilization of p73 and p53 was investigated by transient transfection.

Assay [2] addresses T2, p73 (Homo sapiens, UniProt O15350).
T2 construct: expressed in transfected cells; host or cells: COS7
T2 sequence (O15350 1-499 isoform O15350-2): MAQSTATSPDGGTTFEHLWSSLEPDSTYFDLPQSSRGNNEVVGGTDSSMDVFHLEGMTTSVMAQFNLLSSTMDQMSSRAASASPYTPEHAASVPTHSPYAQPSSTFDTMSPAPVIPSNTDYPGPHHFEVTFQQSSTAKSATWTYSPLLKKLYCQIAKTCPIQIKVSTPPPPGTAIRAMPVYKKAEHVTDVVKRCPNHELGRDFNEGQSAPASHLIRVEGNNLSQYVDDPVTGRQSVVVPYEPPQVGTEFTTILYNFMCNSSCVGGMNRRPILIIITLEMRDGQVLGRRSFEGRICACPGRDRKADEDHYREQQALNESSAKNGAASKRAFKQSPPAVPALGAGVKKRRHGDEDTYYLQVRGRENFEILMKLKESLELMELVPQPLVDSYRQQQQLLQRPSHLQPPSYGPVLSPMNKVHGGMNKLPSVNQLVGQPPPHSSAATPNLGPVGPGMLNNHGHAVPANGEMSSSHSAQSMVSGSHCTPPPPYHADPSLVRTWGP
The description is as above. The format is cell-based. The conditions noted are these: COS7 cotransfection. The procedure:
as §1, §2

Another assay relates to p53. Nature of the assay: p53 protein level (stabilization) by immunoblot in cotransfected COS7 cells. The note with it: COS7 cotransfection (FIG. 14, 15). It counts as cell-based. The procedure:
as §1
As previously reported, some protein kinases (e.g., c-Abl and PKCδ) that interact with p73 can stabilize p73. To confirm whether IKK-α influenced the stabilization of p73, COS7 cells were transfected with a constant amount of HA-p73α expression plasmid together with or without varying amounts of IKK-α expression plasmids and examined for HA-p73α protein levels. […]
For orientation: In western blotting, separated proteins are transferred to a membrane and probed.

B1: IKK-α: IKK-α protein, amino acid sequence SEQ ID NO: 24, expressed from plasmid; apoptosis enhancer (protein, listed as Homo sapiens)
chain: MERPPGLRPGAGGPWEMRERLGTGGFGNVCLYQHRELDLKIAIKSCRLELSTKNRERWCHEIQIMKKLNHANVVKACDVPEELNILIHDVPLLAMEYCSGGDLRKLLNKPENCCGLKESQILSLLSDIGSGIRYLHENKIIHRDLKPENIVLQDVGGKIIHKIIDLGYAKDVDQGSLCTSFVGTLQYLAPELFENKPYTATVDYWSFGTMVFECIAGYRPFLHHLQPFTWHEKIKKKDPKCIFACEEMSGEVRFSSHLPQPNSLCSLIVEPMENWLQLMLNWDPQQRGGPVDLTLKQPRCFVLMDHILNLKIVHILNMTSAKIISFLLPPDESLHSLQSRIERETGINTGSQELLSETGISLDPRKPASQCVLDGVRGCDSYMVYLFDKSKTVYEGPFASRSLSDCVNYIVQDSKIQLPIIQLRKVWAEAVHYVSGLKEDYSRLFQGQRAAMLSLLRYNANLTKMKNTLISASQQLKAKLEFFHKSIQLDLERYSEQMTYGISSEKMLKAWKEMEEKAIHYAEVGVIGYLEDQIMSLHAEIMELQKSPYGRRQGDLMESLEQRAIDLYKQLKHRPSDHSYSDSTEMVKIIVHTVQSQDRVLKELFGHLSKLLGCKQKIIDLLPKVEVALSNIKEADNTVMFMQGKRQKEIWHLLKIACTQSSARSLVGSSLEGAVTPQTSAWLPPTSAEHDHSLSCVVTPQDGETSAQMIEENLNCLGHLSTIIHEANEEQGNSMMNLDWSWLTE
For the molecule B1, the “number of cells undergoing p73α-dependent apoptosis” value in the assay with H1299 cells is given as “increased the number of cells undergoing apoptosis”. Moreover, the “amount of HA-p73α” value with p73 [1] is recorded as “remarkably increased the amount of HA-p73α”. Further, the “stabilization of HA-p73β” value with p73 [2] was “stabilized by IKK-α at a degree lower than that of HA-p73α”. In the assay with p53, the “stabilization of p53” value is reported as “no detectable effect on the stabilization of FLAG-p53”.
